No end group written: not given here.
Experiments:
[1] = target: HLA-DRB4 (DRB4*01:01) (Homo sapiens, UniProt P01903+P13762, G164S); test: Competitive ELISA HLA class II peptide-binding assay, DRB4*01:01
[2] = target: HLA-DQ8 (DQA1*03:01/DQB1*03:02) (Homo sapiens, UniProt P01909+P01920, A209T/A45G/C70Q/D89A/DUP78-78/E183D/E77G/F237L/G63E/H199R/I129T/K197E/L178F/L74F/L98V/Q57E/Q76R/S185I/S97I/T217I/T49S/V73L/Y58L); test: Competitive ELISA HLA class II peptide-binding assay, DQ8
[3] = target: HLA-DQ2 (DQA1*05:01/DQB1*02:01) (Homo sapiens, UniProt P01909+P01920, A45G/A70V/D89A/E106A/E77G/E98D/H199R/L107V/N214S/P84L/P87L/T103K/T109R/T172A/T60S/V78E/V99I/Y58L/Y62S/Y69I/Y79F); test: Competitive ELISA HLA class II peptide-binding assay, DQ2
[4] = target: HLA-DR3 (DRB1*03:01) (Homo sapiens, UniProt P01903+P01911, A100K/A102G/A103R/A169T/F55Y/I96L/K41T/L162R/M171V/P40S/Q125H/Q178H/Q39Y/R42S/S66N/T106N/T262R/W38E/Y61H); test: Competitive ELISA HLA class II peptide-binding assay, DRB1*03:01
[5] = target: HLA-DR4 (DRB1*04:01) (Homo sapiens, UniProt P01903+P01911, A100K/A169T/F76Y/I96L/K127E/L162R/M171V/N62H/P40V/Q125Y/R42H/S133A/S149N/S66Y/V115G/V209L/W38E); test: Competitive ELISA HLA class II peptide-binding assay, DRB1*04:01
[6] = target: T1, proinsulin (C-peptide) peptide on HLA-DRA*01:01 / HLA-DRB1*04:04 (human); test: proliferation
T1 peptide: PLALEGSLQ

[7] = target: T2, proinsulin (C-peptide) peptide on HLA-DQA1*05:01 / HLA-DQB1*02:01 (human); test: proliferation
T2 peptide: SLQPLALEGSLQ

[8] = target: T3, proinsulin (C-peptide) peptide on HLA-DRA*01:01 / HLA-DRB1*04:04 (human); test: proliferation
T3 peptide: PLALEGSLQK

[9] = target: T4, proinsulin (C-peptide) peptide on HLA-DRA*01:01 / HLA-DRB1*03:01 (human); test: proliferation
T4 peptide: QPLALEGSLQKR

[10] = target: T5, proinsulin (B-chain) peptide on HLA-DQA1*05:01 / HLA-DQB1*02:01 (human); test: proliferation
T5 peptide: ALYLVCGERG

[11] = target: T6, proinsulin (B-chain) peptide on HLA-DQA1*05:01 / HLA-DQB1*02:01 (human); test: proliferation
T6 peptide: VCGERGFFY

[12] = target: T7, proinsulin (C-peptide) peptide on HLA-DRA*01:01 / HLA-DRB1*04:01 (human); test: proliferation
T7 peptide: SLQPLALEGSL

[13] = target: T8, proinsulin (C-peptide) peptide on HLA-DQA1*03:01 / HLA-DQB1*03:02 (human); test: proliferation
T8 peptide: GGPGAGSLQPL

Molecule `CC[C@H](C)[C@H](NC(=O)[C@@H](NC(=O)[C@H](C)NC(=O)[C@H](CCCCN)NC(=O)[C@H](CC(=O)O)NC(=O)[C@@H](NC(=O)[C@H](CCC(=O)O)NC(=O)[C@@H](NC(=O)[C@H](C)NC(=O)[C@H](CC(C)C)NC(=O)[C@H](CC(C)C)NC(=O)[C@H](CC(=O)O)NC(=O)CNC(=O)[C@H](C)N)[C@@H](C)CC)[C@@H](C)O)[C@@H](C)O)C(=O)O` [E2/E7] has an IC50 [1] of 63 nM.

In the case of “ADVEVYRAVTPLGPPD [DQB45-57, reference compound]”, the IC50 [2] is reported as 730 nM.

In the case of “B11-25: overlapping proinsulin peptide (15-mer) (LVEALYLVCGERGFF; UniProt P01308 35-49, looked up, fragment) [Peptide B11-25]”, the “binding affinity to DQ8, in words” value [2] is reported as “moderate to high” and the “binding affinity to DQ2, in words” value [3] is reported as “moderate (binding ratio below 100 (moderate binding))”.

In the case of “B14-28: overlapping proinsulin peptide (15-mer) (ALYLVCGERGFFYTP; UniProt P01308 38-52, looked up, fragment) [Peptide B14-28]”, the “binding affinity to DQ8, in words” value [2] is reported as “moderate to high” and the “binding affinity to DQ2, in words” value [3] is reported as “did not show detectable binding affinity”.

With “B17-C1: overlapping proinsulin peptide (15-mer) (LVCGERGFFYTPKTR; UniProt P01308 41-55, looked up, fragment) [Peptide B17-C1]” the “binding affinity to DQ2, in words” value [3] was “did not show detectable binding affinity”.

“B20-C4: overlapping proinsulin peptide (15-mer) (GERGFFYTPKTRREA; UniProt P01308 44-58, looked up, fragment) [Peptide B20-C4]” was tested, and the “binding affinity to DRB1*03:01, in words” value [4] was “high (below 10 (high binding))”.

With “C13-27: overlapping proinsulin peptide (15-mer) (ELGGGPGAGSLQPLA; UniProt P01308 67-81, looked up, fragment) [Peptide C13-27]” the “binding affinity to DQ8, in words” value [2] was “did not show detectable binding affinity”.

With “C16-30: overlapping proinsulin peptide (15-mer) (GGPGAGSLQPLALEG; UniProt P01308 70-84, looked up, fragment) [Peptide C16-30]” the “binding affinity to DQ8, in words” value [2] was “did not show detectable binding affinity”.

In the case of “C19-33: overlapping proinsulin peptide (15-mer) (GAGSLQPLALEGSLQ; UniProt P01308 73-87, looked up, fragment) [Peptide C19-33]”, the “binding affinity to DRB1*04:01, in words” value [5] is reported as “abrogated”, the “binding affinity to DRB1*03:01, in words” value [4] is reported as “abrogated” and the “binding affinity to DQ8, in words” value [2] is reported as “moderate to high”. For the same molecule, the “binding affinity to DQ2, in words” value [3] was “moderate (binding ratio below 100 (moderate binding))”.

For GIVEQCCTSICSLYQ [Peptide A1-15], the “binding affinity to DQ8, in words” value [2] was “moderate to high” and the “binding affinity to DQ2, in words” value [3] was “moderate to high”.

B1: Clone 2 (TCR)
alpha TRAV13-1 TRAJ17 CDR3: CAASSKAAGNKLTF
beta TRBV6-1 TRBJ1-2 CDR3: CASSMTQGLDYGYTF
B1: recognises [6].

B2: Clone 22 (TCR)
alpha TRAV2 TRAJ8 CDR3: CAVEDHGTGFQKLVF
beta TRBV4-3 TRBJ2-3 CDR3: CASSQETGPTQYF
B2: recognises [7].

B3: Clone 3 (TCR)
alpha TRAV19 TRAJ49 CDR3: CALSDRTGNQFYF
beta TRBV9 TRBJ1-2 CDR3: CASRLSGTNIPPTYGYTF
B3: recognises [8].

B4: Clone 11 (TCR)
alpha TRAV13-1 TRAJ47 CDR3: CAAMCKLVF
beta TRBV18 TRBJ1-2 CDR3: CASSPDRQGVEYTF
B4: recognises [9].

B5: Clone 24 (TCR)
alpha TRAV8-2 TRAJ20 CDR3: CAVSEAYKLSF
beta TRBV5-8 TRBJ2-5 CDR3: CASTEGIQETQYF
B5: recognises [10].

B6: Clone 19 (TCR)
alpha TRAV29 TRAJ33 CDR3: CAASPSDSNYQLIW
beta TRBV7-2 TRBJ1-1 CDR3: CASSFRRGSMNTEAFF
B6: recognises [11].

B7: Clone 1 (TCR)
alpha TRAV41 TRAJ49 CDR3: CAASNTGNQFYF
beta TRBV14 TRBJ2-7 CDR3: CASSQALAGVAEQYF
B7: recognises [8].

B8: Clone 13 (TCR)
alpha TRAV17 TRAJ11 CDR3: CATALISGYSTLTF
beta TRBV12-3 TRBJ2-1 CDR3: CASRQQGVGYNEQFF
B8: recognises [12].

B9: Clone 23 (TCR)
alpha TRAV12-3 TRAJ33 CDR3: CAMSARSNYQLIW
beta TRBV4-3 TRBJ2-3 CDR3: CASSKMGPRTDTQYF
B9: recognises [13].

From publication PMC9022012 (Journal of immunology (Baltimore, Md. : 1950), 2020)
